Reference: the nanobody polyreactivity screen of Harvey et al. (2022)

Experiment: yeast display, Sf9 membrane polyspecificity reagent, FACS + sequencing; frameworks hold sequencing errors
Method in brief: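 Nanobodies came from a synthetic yeast display library in Saccharomyces cerevisiae BJ5465, induced with galactose for 36–48 hours and stained for 1 hour at 4 °C with 10% biotinylated, detergent-solubilized Sf9 membrane reagent. Cells were enriched on streptavidin microbeads and then FACS-sorted, with low and high (top ~1%) gates set on anti-HA fluorescence for expression and streptavidin fluorescence for reagent binding. Each polyreactivity label reflects the gate a clone came from. Genes were amplified by colony PCR, sequenced by MiSeq 2 × 250 and filtered by CDR length.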

## QVQLVESGGGLVQAGGRLRLSCAASGSTFYNYAMGWYRQAPGKERELVASIPWNGGSTYYADSVKGRFTISRDNAKNTVYLQMNSLKPEDTAVYYCAADWTWTYPYDYWGQGTQVTVSS
  polyreactivity (PSR sort gate): low polyreactivity

## QVQLVESGGGLVQAGGSLLLSCAASGIIFSSYVMGWYRQAHGKERELVAAISKSGARPSYADSVKGRFTISRDNAKNTVYLQMNSLKPEDTAVYYCAAAWHTAYWVGSDSQGGGYWGQGTQVTVSS
  polyreactivity (PSR sort gate): low polyreactivity

## QVQLVESGGGLVQAGGSLRLSCAASGRIFKGYAMGWYRQAPGKERELVAAITWRGGTTYYADSVKGRFTISRDNAKNTVYLQMNSLKPEDTAVYYCAAVTRRYVLSTFYYWGQGTQVTVSS
  polyreactivity (PSR sort gate): high polyreactivity

## QVQLVESGGGLVQAGGSLRLSCAASGRTFARNAMGWYRQAPGKDRELVAAISSSGGSTYYADSVKGRFTISRDNAKNTVYLQMNSLKPEDTAVYYCAARSRHAYGYWGQGTQVTVSS
  polyreactivity (PSR sort gate): high polyreactivity

## QVQHVESGGGLDQAGGSLRLSCAASGRIFYANAMGWYRQAPRKERELVAAIDWSGGSTYYADSVKGRFTISRDNAKNTVYLQMNSLKPEDTAVYYCAGPYHYYGNSVGYADYVYWGQGTQVTVSS
  polyreactivity (PSR sort gate): low polyreactivity

## QVQLVESGGGLVQAGGSLRLSCAASGFTFAGYAMGWYRQAPGKERELVAAISISGGRTYYADSVKGRFTSSRDYAKNTVYLQMNSLKPEDTAVYYCNAASREPSGYDYWGQGTQVTVSS
  polyreactivity (PSR sort gate): high polyreactivity

## QVQLVESGGGLVQAGGSLRLSCAASGSIFVTYAMGWYRQAPGKERELVAAISTSGGSTYADSVKGRFTISRDNAKNTVYLQMNSLKPEDTAVYYCNADDPGYAVPWYWFKSDYWGQGTQVTVSS
  polyreactivity (PSR sort gate): low polyreactivity

## QVQLVESGGGLVQAGGSLRLSCAASGSTLGSNARGWYRQAPGKERALVAAITWSGGTTYYADSVKGRFTISRDNAKNPVYLQMNSLKPEDTAVYYCATGQSVIYRYDYWGQGTQVTVSS
  polyreactivity (PSR sort gate): low polyreactivity

## QVQLVESGGGLVQAGGSLRLSCAASGFIFLFNAMGWYRQAPGNESELVAAIYDDGSTYYADSVKGRFTLSLDNAKNTVYLHMNSVKPEDTAVYYCAAPRRGRWIRGYLGQGTQVTVSS
  polyreactivity (PSR sort gate): high polyreactivity

## QVQLVESGGGLVQAGGSLRLSCAASGGTFFVYAMGWSRPAPGKERELVAAISGSGGRTYYADSVKGRFTISRDNAKNTVYLQMNSLTPEDTAVYYCNATYLTRSTRLSDFDYWGQGTQVTVSS
  polyreactivity (PSR sort gate): high polyreactivity

## QVQLVESAGCLVQAAASLRLSCSASGRTFYNYAMGWYRQAPGKEWELVASIRKNGGSTYYADSVKGRFTISRDNAKNTVYFQMNRLKPEDTAVYYCAAGRTVVTGSYYWGQGTQVTVSS
  polyreactivity (PSR sort gate): high polyreactivity

## QVQLVESGGGLVQAGGSLRLSCATSGRTYVPAMGWYRQAPGKERALVAAITSSGITYYADSVKGRVTISRDNAKNTVYLQMNSLNPEDTAVYYCATSYSNRWGWKYNYWGQGTQVTVSS
  polyreactivity (PSR sort gate): high polyreactivity

## QVQLVESGGGLVQAGGSLRLSCAASGRTFSGNTMGWYRQAPGKERELVAAITGRGGSTYYADSVKGRFTISRDNANNTVYLQMNSLKPEDTAVYYCAALRYTFAGRFDYWGQGTQVTVSS
  polyreactivity (PSR sort gate): high polyreactivity

## QVQLVESGGGLVQSGGSLRLSCAASGGTFRSYAMGWYIQAPGKERELVYAIRRSGGSTYYADSVKGRFTISRDNTKNTVYLQMNSLKPEDTAVYYCAARGYNSRRIWKYYYWGQGTQVTVTS
  polyreactivity (PSR sort gate): high polyreactivity

## QVQLVESGGGLVQAGGSLRLSCAASGFIFAPYAMGWYRQAPGKEREFVASITYGSDSTYYADSVKGRFTISRDNAKNTVYLQMNSLKPEDTAVYYCNREGWHYGPYGYWGQGTQVTVSS
  polyreactivity (PSR sort gate): low polyreactivity

## QVQLVESAGGLVQAGGSLRLSSAASAFTFYSNAMGWYRHAPGKEREFVAAGSTYYADSVKGRFTISRDNAKNTVYLQMNSLKPEDTAVYYCAADSYDVSRRYEYEYWGEGTQVTVSS
  polyreactivity (PSR sort gate): low polyreactivity

## QVQLVESGGGLVQAGGSLRLSCAASGRTFTSYAMGCYRQEPGKERELVAAITRGGRTNYADSVKGRFTISRDNAKNTVYLQMNSLKPEDTAVYYCNTEIRLSKYDYWGQGTQVTVSS
  polyreactivity (PSR sort gate): low polyreactivity

## QVQLLESGGGLVQAGGSLRLRCAASGFIISRYAMAWYRQAPGKEMELVAGITGSGGSTYYADSVKGRFTISRDNAKNTVYLQMNSLKPEDTAVYYCAAGRRGGALLFYYWGQGTLVTVSS
  polyreactivity (PSR sort gate): high polyreactivity

## QVQLVESGGGLVQAGGSLRLSCADSGLIFYYYAMGWYRHAPGKERELVAAISYNGGTTYYADSVKGRFTISRDNAKNTVYLQMNSLNPEDTAVYYCAAEQLVSGYDYWGQGTQVTVSS
  polyreactivity (PSR sort gate): low polyreactivity

## QVQLVESGGGLVQAGGSLRLSCAASGRIFDYYTMGWYRQAPGKERELVAAINWSGGSTYYADSVKGRITISRDKAKNTVYLQMNSLKPEDTAVYYCATLSYGREYGYWGQGTQVTVSS
  polyreactivity (PSR sort gate): low polyreactivity

## QVQLVESGGGLVQAGGSLRLSCAASGSTVSNYAMGWYRQAPGKERELVASISNGGSTNDADSVKGRFTISRANAKNTGYLQMNSLKPEDTAVYYCNAESKAKYDYWGQGTQVTLSS
  polyreactivity (PSR sort gate): low polyreactivity

## QVQLVESGGGLVQAGGSLRLSCAASGITFADYAMGRYRQAPGKERELVAAISSGTSTYYADSVKGRFTISPDNAKNTVYLQMNSLKPEDTAVYYFYARYWGRVPPPAYDPRRYWGQGTQVTVSS
  polyreactivity (PSR sort gate): high polyreactivity

## QVQLVESGGGLVQAGGSLRLSCAASGSIFRQYAMGWYRQAPGKERELVAAITYSGGNTYYADSVKGRFTISRDNAKNTVYLQMNSLKPEDTAVYYCAADYGSRSWEYNYWGQGTQVTVSS
  polyreactivity (PSR sort gate): low polyreactivity

## QVQLVESGGGLVQAGGSLRLSCAASGFIFGYNAMGWYRQAPGKERELVAAIRAGDGSTYYADSVKGRFTISRDNAKNTVYLQMNSLKPEDTAVYYCAAAWRQSGYRYGYWGQGTQVTVSS
  polyreactivity (PSR sort gate): high polyreactivity

## QVQLVESGGGLVQAGGSLRLSCAASGSIFVDYAMGWYRQAPGKERELVAAITSTGSTTYADSVKGRFTISRDNAKNTVYLQMNSLKPEDTAVYYCAASFRWYGTVRYPYEMYYWGQGTQVTVSS
  polyreactivity (PSR sort gate): low polyreactivity

## QDQLVESGGGLVQAGGSLRLRCAASGRTFEGNAMGWYRQAAGTEGELVAAMTSGGPTNSADSVKGRFTISRDNAKNTVYFQMNSLKPEDTAVYYCADETRDRSTYFPGQAYDYWGQGTQVTVSS
  polyreactivity (PSR sort gate): low polyreactivity

## QVQLVESGGGLVQAGGSLRLSCAASGITFGDYAMGWDRQAPGKERELVAGINWSGDGTYYSDSVKGRFTISRDNAKNTFYLQMNSLKPEDTAVYYCAAETFYDYGGYDYWGQGTQVTVSS
  polyreactivity (PSR sort gate): low polyreactivity

## QVQLVESGGGLVQAGGSLRLSCAASGSIFKSNAMGWYRQAPGKERELVAGISWGGGSTYYADSVKGRFTISRDNAKNTVYLQMNSLKPEDTAVYYCAAYVYYRPSALAVTGDYYWGQGTQVTVSS
  polyreactivity (PSR sort gate): low polyreactivity

## QVQLVESGGGLVQAGGSLRLSCAASGSIFRWYAMGWSRQAPGKERELVAAISKSGGTTYYADSVKGRFTISRDNAKNTVYLQMNSLKPEDTAVYYCAARRYPYGGYGYRYDYWGQGTQVTVSS
  polyreactivity (PSR sort gate): high polyreactivity

## QVQLVESGGGLVQAGGSLRLSCAASGITFQYNAMGWYRQAPGKERELVATIRRGGITKYADSVKGRFTISRDNAKNTVSLQMNSLKPEDSAVYYCAADFWYYQYPYGGGGYWGQGTQVTVSS
  polyreactivity (PSR sort gate): low polyreactivity

## QVQLVESGGGLVQAGGSLRLSCAASGSIFNVYVMGWYRQAPGKERELVASITWTTGSTYADSVKGRFTISRDNAKNSVYFQMNSLKPEDTAVYYCNAEFPEDTSDDYWGQGTQVNVSS
  polyreactivity (PSR sort gate): low polyreactivity

## QVQLVESGGGLVQAGGSLRLSCAASGSTFYLNAMGWYRQAPGKERELVAVITRSGGNTYYADSVKGRFTISRDNAKNTVYLQMNSLKPEDTAVYYCNKRPTGGKYEYWGQGTQVTVSS
  polyreactivity (PSR sort gate): high polyreactivity

## QVQLVESGGGLVQAGGSLRLSCAASGLIFNYNSMGWYLQAPGKEMELVAVITSGDSTNYADSVKGRFTISRDNAKNTVYLQMNSLKPEDTAVYYCNADYVYSGGRYYGKDYWFDYWGQGTQVTVSS
  polyreactivity (PSR sort gate): low polyreactivity

## QVQLVESGGGLVQAGGSLRLSCAASGFIFSSYAMGWYRQAPGKERELVAAITSGGSTNYADSVKGRFTISRDNAKNTVYLQMNSLKPEDTAVYYCAADGVASLFGDPPTEFDYWGQGTQVTVSS
  polyreactivity (PSR sort gate): low polyreactivity

## QVQLVESGGGLVQAGGSLRLSCAASGITFFWNAMGWYRTAPGKERELVAAISSGAGTTYADSVKGRFTISRDNAKNTVYLQMNSLKPEDTAVYYCAARRYRYAYGPYNYWGQGTQVTVSS
  polyreactivity (PSR sort gate): low polyreactivity

## QVQLVESGGGLVQAGGSLRLSCAAARYAMGWYRQAPGKERELVAAISKSGGSTYYADSVKGRFTISRDNAKNTVYLQMNSLKPEDTAVYYCAARGHAGRGEYYYWGQGTQVTVSS
  polyreactivity (PSR sort gate): high polyreactivity

## QVQLVESGGGLVQAGGSLRLSCAASGRIDHNAMDWYRQAPGKERELVAAITWSGGGTYYADSVKGRFTISRDNAKNTVYLQMNSLKPEDTAVYYCNVRRAFSGWRGYDYWGQGTQVTVSS
  polyreactivity (PSR sort gate): high polyreactivity

## QVQLLESGGGLVEAGGSLRLSCSASGSTYNAMGWYRQATGKEREFVAYITTGGGGTYYADSVKGRFTISRDNAKNTVYLQMNSLKPEETADYYCAAEDYRTRTYVYRYRYYFWGQGTQVTVAS
  polyreactivity (PSR sort gate): high polyreactivity

## QVQLVESGGGLVQAGGSLRLSCAASGLIFVWYALGWSRQAPGKERELVAAISWRGGTTYYADSVKGRFTISRDNAKNTVYLQMNSLKPEDTAVYYCNAEGSQVDYLRYVWYDMDYWGQGTQVTVSS
  polyreactivity (PSR sort gate): low polyreactivity

## QVQLVESGGGLVQAGGSLRLSCAASGIIFRYYAMGWYRQAPGKERELVAVITGRGGGTYYADSVKGRFTISRDNAKNTVYLQMNSLKPEDTAVYYCAKDFTGHYPKGFDYWGQGTQVTVSS
  polyreactivity (PSR sort gate): low polyreactivity

## QVQLVESGGGLVQAGGSLRLSCAASGRIFTGNALGWYRPAPGKERELVAGISTSGGSTYYADSVKGRFTISRDNAKNTVYLQMNSLKPEDTAVYYCAADWYYRRSYRRMNYWGQGTQVTVSS
  polyreactivity (PSR sort gate): high polyreactivity

## QVQLVESGGGLVQAGGSLRLSCDASGSTFWFNDMGWYRQAPGKERELVAAIDWSDGSTYYADSVKGRFTISRDNAKNTVYLQMNSLKPEDTAVYFCAADHRYSARRSVPTLYDYWGQGTQVTVSS
  polyreactivity (PSR sort gate): low polyreactivity

## QVQLVESGGGLVQAGGSLRLSCAASGSIFGYYAMGWYRQAPGKERELVAVITSSGGGTYYADSVKGRFTISRDNAKNTVYLQMNSLKPEDTAVYYCAKLGTRRYDSWGQGTQVTVSS
  polyreactivity (PSR sort gate): high polyreactivity
